The target in assay [1] is T1, Ectodomain of Arabidopsis thaliana MIK2, TwinStrep- and HA-tagged (Arabidopsis thaliana, UniProt Q8VZG8 44-709).
T1 sequence (looked up): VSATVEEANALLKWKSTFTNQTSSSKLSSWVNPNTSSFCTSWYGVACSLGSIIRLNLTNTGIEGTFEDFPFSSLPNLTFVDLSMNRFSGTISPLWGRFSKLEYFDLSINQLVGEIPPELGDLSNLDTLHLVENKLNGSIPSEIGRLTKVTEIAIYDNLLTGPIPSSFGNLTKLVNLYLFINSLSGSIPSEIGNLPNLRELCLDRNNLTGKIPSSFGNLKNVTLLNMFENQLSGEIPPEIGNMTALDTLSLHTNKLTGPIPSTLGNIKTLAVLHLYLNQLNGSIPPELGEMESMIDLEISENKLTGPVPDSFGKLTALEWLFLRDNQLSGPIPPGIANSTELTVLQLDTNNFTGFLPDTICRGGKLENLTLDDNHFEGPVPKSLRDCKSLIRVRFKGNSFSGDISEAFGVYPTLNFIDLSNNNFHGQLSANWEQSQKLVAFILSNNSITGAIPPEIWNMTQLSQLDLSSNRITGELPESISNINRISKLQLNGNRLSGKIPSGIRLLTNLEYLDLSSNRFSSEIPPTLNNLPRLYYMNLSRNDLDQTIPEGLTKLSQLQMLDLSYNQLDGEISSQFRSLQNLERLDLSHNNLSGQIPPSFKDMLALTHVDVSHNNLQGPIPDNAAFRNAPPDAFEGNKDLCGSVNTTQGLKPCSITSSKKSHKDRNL
Kind of assay: ligand-depletion assay.

In assay [2] the target is Ectodomain of Arabidopsis thaliana FLAGELLIN-SENSING 2, TwinStrep- and HA-tagged (Arabidopsis thaliana, UniProt Q9FL28 24-806). Kind of assay: ligand-depletion assay.
Ectodomain of Arabidopsis thaliana FLAGELLIN-SENSING 2, TwinStrep- and HA-tagged, sequence (Q9FL28 24-806): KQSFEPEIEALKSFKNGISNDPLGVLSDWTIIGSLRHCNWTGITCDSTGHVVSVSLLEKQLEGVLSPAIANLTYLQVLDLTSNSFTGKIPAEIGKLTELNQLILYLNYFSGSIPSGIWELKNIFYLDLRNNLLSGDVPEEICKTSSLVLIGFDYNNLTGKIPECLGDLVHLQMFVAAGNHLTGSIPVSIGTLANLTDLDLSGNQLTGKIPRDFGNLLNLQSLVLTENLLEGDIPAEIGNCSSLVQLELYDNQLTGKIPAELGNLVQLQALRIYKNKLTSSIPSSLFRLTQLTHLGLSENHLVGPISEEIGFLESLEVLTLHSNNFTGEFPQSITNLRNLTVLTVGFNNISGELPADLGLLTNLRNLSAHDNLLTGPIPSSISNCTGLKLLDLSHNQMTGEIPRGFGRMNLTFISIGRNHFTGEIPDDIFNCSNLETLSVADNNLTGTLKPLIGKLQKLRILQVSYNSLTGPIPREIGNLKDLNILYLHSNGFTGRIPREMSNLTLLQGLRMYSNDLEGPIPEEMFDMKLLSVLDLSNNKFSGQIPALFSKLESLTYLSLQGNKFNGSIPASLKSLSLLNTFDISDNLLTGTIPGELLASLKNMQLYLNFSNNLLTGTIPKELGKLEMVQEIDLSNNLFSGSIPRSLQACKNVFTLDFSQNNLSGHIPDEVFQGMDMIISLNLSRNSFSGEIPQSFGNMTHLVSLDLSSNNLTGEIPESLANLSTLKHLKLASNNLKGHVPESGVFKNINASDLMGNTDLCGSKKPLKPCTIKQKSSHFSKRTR

PVRSSQSSQAGGR [AtSCOOP12 (SERINE-RICH ENDOGENOUS PEPTIDE 12)]: the binding result in assay [1] is recorded as “binds”.

For QRLSTGSRINSAKDDAAGLQIA [flg22 peptide], the binding result in assay [2] is listed as “binds”.

(Values after article doi:10.1101/2025.05.22.655486 (bioRxiv, 2025).)
